Laboratory results from patent publication US20100093608A1 (Eli Lilly, published 2010).
Where two headings read alike, the source gives them in different places. Values belong to the molecule of their own block, whether it stands above or below them.

Key:
[1] = biological target: T1, erythropoietin receptor on TF-1 cells (UniProt P19235 25-508, limits assumed)
T1 sequence (looked up): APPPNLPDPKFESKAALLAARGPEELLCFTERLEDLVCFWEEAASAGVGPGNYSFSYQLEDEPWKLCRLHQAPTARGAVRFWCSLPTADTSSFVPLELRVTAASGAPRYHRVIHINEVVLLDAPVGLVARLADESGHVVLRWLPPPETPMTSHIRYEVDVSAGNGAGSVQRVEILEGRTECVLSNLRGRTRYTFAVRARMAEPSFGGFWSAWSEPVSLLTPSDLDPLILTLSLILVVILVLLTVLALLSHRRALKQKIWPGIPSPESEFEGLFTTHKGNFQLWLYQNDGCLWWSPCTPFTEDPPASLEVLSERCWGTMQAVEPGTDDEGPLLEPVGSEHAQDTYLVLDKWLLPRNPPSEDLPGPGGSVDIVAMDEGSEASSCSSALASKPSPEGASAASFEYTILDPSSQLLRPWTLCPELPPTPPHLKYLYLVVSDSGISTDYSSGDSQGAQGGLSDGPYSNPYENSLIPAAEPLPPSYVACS

[2] = biological target: T1, erythropoietin receptor on TF-1 cells; remark: listed apart in the source
[3] = biological target: T1, erythropoietin receptor on TF-1 cells; remark: listed apart in the source
[4] = biological target: T1, erythropoietin receptor on TF-1 cells; test: cell-based or functional assay
[5] = biological target: T1, erythropoietin receptor on TF-1 cells; test: cell-based or functional assay; remark: listed apart in the source
[6] = biological target: T1, erythropoietin receptor on TF-1 cells; test: cell-based or functional assay; remark: listed apart in the source
[7] = biological target: T1, erythropoietin receptor on TF-1 cells; test: cell-based or functional assay; remark: listed apart in the source

Molecule: A128 (ligand)
- Relative activity compared to wt fEPO (TF-1 proliferation) [1]: 1.4 X
- fold more active than WT (TF-1 proliferation, EC 50 ng/ml) [2]: 1.4 x

Molecule: E31 (ligand)
- Relative activity compared to wt fEPO (TF-1 proliferation) [1]: 1.4 X

Molecule: E37 (ligand)
- EC50 (read off the curve) [1]: 3 ng/mL
- Relative activity compared to wt fEPO (TF-1 proliferation) [1]: 1.2 X

Molecule: E72 (ligand)
- Relative activity compared to wt fEPO (TF-1 proliferation) [1]: 1.2 X
- EC50 (TF-1 proliferation, 450nm; stored 5 weeks at +4 degrees C) [3]: 2.1 ng/mL
- EC50 (TF-1 proliferation, 450nm; stored 5 weeks at -80 degrees C) [3]: 2.1 ng/mL

Molecule: F133 (ligand)
- Relative activity compared to wt fEPO (TF-1 proliferation) [1]: 2.2 X

Molecule: L130 (ligand)
- Relative activity compared to wt fEPO (TF-1 proliferation) [1]: 2.6 X

Molecule: R53 (ligand)
- Relative activity compared to wt fEPO (TF-1 proliferation) [1]: 1.6 X

Molecule: R131 (ligand)
- Relative activity compared to wt fEPO (TF-1 proliferation) [1]: 0.8 X

Molecule: R163 (ligand)
- Relative activity compared to wt fEPO (TF-1 proliferation) [1]: 1.1 X

Molecule: S36 (ligand)
- Relative activity compared to wt fEPO (TF-1 proliferation) [1]: 0.9 X

Molecule: S120 (ligand)
- Relative activity compared to wt fEPO (TF-1 proliferation) [1]: 1.6 X

B1: wild type feline erythropoietin (fEPO) (ligand)
chain: APPRLICDSRVLERYILEAREAENVTMGCAEGCSFSENITVPDTKVNFYTWKRMDVGQQAVEVWQGLALLSEAILRGQALLANSSQPSETLQLHVDKAVSSLRSLTSLLRALGAQKEATSLPEATSAAPLRTFTVDTLCKLFRIYSNFLRGKLTLYTGEACRRGDR
- EC50 (read off the curve) [4]: ~3 ng/mL
- EC50 (TF-1 proliferation; Starting [fEPO] 250ng/ml; Theoretical Activity 0.5x, Actual Activity 0.6x) [5]: 4.7 ng/mL
- EC50 (TF-1 proliferation; Starting [fEPO] 500ng/ml; Theoretical Activity 1x, Actual Activity 1x) [5]: 2.8 ng/mL
- EC50 (TF-1 proliferation; Starting [fEPO] 1000ng/ml; Theoretical Activity 2x, Actual Activity 2x) [5]: 1.4 ng/mL
- EC50 (read off the curve) [6]: ~2 ng/mL
- EC50 (TF-1 proliferation, 450nM) [7]: 3.2 ng/mL

The next lines start with the values.

- Relative activity compared to wt fEPO (TF-1 proliferation) [1]: 1.4 X
Molecule: D55 (ligand)

- Relative activity compared to wt fEPO (TF-1 proliferation) [1]: 3.1 X
Molecule: E21 (ligand)

- Relative activity compared to wt fEPO (TF-1 proliferation) [1]: 0.7 X
Molecule: K116 (ligand)

- Relative activity compared to wt fEPO (TF-1 proliferation) [1]: 0.9 X
Molecule: P129 (ligand)

- Relative activity compared to wt fEPO (TF-1 proliferation) [1]: 0.6 X
- fold less active than WT (TF-1 proliferation, EC 50 ng/ml) [2]: 1.6 x
Molecule: R76 (ligand)

- Relative activity compared to wt fEPO (TF-1 proliferation) [1]: 3.2 X
Molecule: T132 (ligand)

- Relative activity compared to wt fEPO (TF-1 proliferation) [1]: 2.6 X
Molecule: Y49 (ligand)
